Measured values as given in US20180208675A1 (Novo Nordisk, published 2018).

B1: mAb 2F3 (antibody, V domains shown)
VH: QVQLKQSGPGLVQPSQSLSITCTVSGFSLSSYGVHWVRQSPGKGLEWLGVIWRGGSTDFNAAFMSRVSFTKDNSKSQVFFKMNSLQADDTAIYYCAKNSHGNYVGYAMDYWGQGTSVTVSS
VL: DIVMTQSQKFMSTTVGDKVSIPCKASENVGAAVAWYQQKPGQSPTLLIYSASNRYTGIPDRFTGSGSGTDFTLTIRTVQSEDLADYFCQQYTNYPTFGGGTKLEIKR
B2: mAb 2F22 (antibody, V domains shown)
VH: QVQLKQSGPGLVQPSQSLSITCTVSGFSLTNYGVHWVRQSPGKGLEWLAVIWRGGSIDYNAAFMSRLSITKDNSKSQVFFKMNSLQADDTAIYYCAKNSHGNYVGYAMDYWGQGTSVTVSS
VL: GIVMTQSQKFMSTTVGDRVSITCKASQSVGPAVAWYQQKPGQSPKLLIYSASNRYTGVPDRFTGSGSGADFTLTISNLHSEDLADYFCQQYTSYPTFGGGTKLEIKR
B3: mAb 2F45 (antibody, V domains shown)
VH: QVQLKQSGPGLVQPSQSLSISCTVSGFSLTGYGVHWIRQSPGKGLEWLGVIWRGGSIDYNAAFMSRLSITKDNSKSQVFFKMNSLQADDTAIYYCAKNSHGNYVGYAMDYWGQGTSVTVSS
VL: DIVMTQSQKFMSTTVGDRVSITCKASQNVGTAVAWYQQKPGQSPELLIYSASNRYTRVPDRFTGSGSGTDFTLTISNMQSEDLADYFCQQYTSYPTFGGGTKLEIKR
B4: mAb 2F35 (antibody, V domains shown)
VH: EVQLQQSGAELVRPGALVKLSCKASGFNIKDYYIHWVKQRPEQGLEWIGWIDPENGNTIFDPKFQGRASITADTSSNTAYLQLSSLTSEDTAVYYCAGRWYAMDYWGQGTSVTVSS
VL: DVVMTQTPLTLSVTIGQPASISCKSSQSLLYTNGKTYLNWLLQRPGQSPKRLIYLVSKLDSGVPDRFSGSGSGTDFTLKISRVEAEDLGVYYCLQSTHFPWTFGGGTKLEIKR
B5: mAb 1F91 (antibody, V domains shown)
VH: DVQLQESGPGLVKPSQSLSLTCTVSGYSITSDYAWNWIRQFPGNKLEWMGYISYSGSTSYNPSLKSRISITRDTSKNQFFLQLNSVTTEDTATYYCARWAYDGPWGQGTLVTVSA
VL: QIVLSQSPALLSASPGEKVTMTCRASSSVSHMHWYQQKPGSSPKPWIYATSNLASGVPARFSGSGSGTSYSLTITRVEAEDAATYYCQQWSSNPFTFGSGTKLEIKR
B6: mAb 4F110 (antibody, human IgG4 S228P, kappa, V domains shown)
VH: QVQLQQSGAELVKPGASVKLSCKASGYTFISYYMYWVKQRPGQGLEWIGEINPSNGDTNLNEKFKSKATLTVDKSSSTVYMQLSSLTSEDSAVYYCTRWDRFDGFVYWGQGTLVTVSA
VL: ETTVTQSPASLSMAIGGKVTIRCIISTNIDDDINWYQQKPGEPPKLLISEGNTLRPGVPSRFSSSGYGTDFVFTIENMLSEDVADYYCLQSDDLPYTFGGGTKLEIKR
B7: Fab 0089 (Fab fragment of mAb 4F110) (Fab, V domains shown)
VH: QVQLQQSGAELVKPGASVKLSCKASGYTFISYYMYWVKQRPGQGLEWIGEINPSNGDTNLNEKFKSKATLTVDKSSSTVYMQLSSLTSEDSAVYYCTRWDRFDGFVYWGQGTLVTVSA
VL: ETTVTQSPASLSMAIGGKVTIRCIISTNIDDDINWYQQKPGEPPKLLISEGNTLRPGVPSRFSSSGYGTDFVFTIENMLSEDVADYYCLQSDDLPYTFGGGTKLEIKR
notes: Chimeric mouse/human Fab; HC truncated after the hinge cysteine; KPI-3 specific
B8: mAb 2021 (antibody, human IgG4 S228P, kappa, V domains shown)
VH: EVQLVESGGGLVKPGGSLRLSCAASGFTFSNYAMSWVRQTPEKRLEWVATISRSGSYSYFPDSVQGRFTISRDNAKNSLYLQMNSLRAEDTAVYYCARLGGYDEGDAMDSWGQGTTVTVSS
VL: DIVMTQTPLSLSVTPGQPASISCKSSQSLLESDGKTYLNWYLQKPGQSPQLLIYLVSILDSGVPDRFSGSGSGTDFTLKISRVEAEDVGVYYCLQATHFPQTFGGGTKVEIKR
B9: Fab 0094 (Fab fragment of mAb 2007) (Fab, V domains shown)
VH: EVQLVESGGGLVKPGGSLRLSCAASGFTFSNYAMSWVRQAPGKGLEWVSTISRSGSYSYYPDSVKGRFTISRDNAKNSLYLQMNSLRAEDTAVYYCARLGGYDEGDAMDSWGQGTTVTVSS
VL: DIVMTQTPLSLSVTPGQPASISCKSSQSLLESDGKTYLNWYLQKPGQSPQLLIYLVSILDSGVPDRFSGSGSGTDFTLKISRVEAEDVGVYYCLQATHFPQTFGGGTKVEIKR
notes: KPI-2 specific
B10: Fab 0095 (Fab fragment of mAb 2014) (Fab, V domains shown)
VH: EVQLVESGGGLVKPGGSLRLSCAASGFTFSNYAMSWVRQAPGKGLEWVSTISRSGSYSYYADSVKGRFTISRDNAKNSLYLQMNSLRAEDTAVYYCARLGGYDEGDAMDSWGQGTTVTVSS
VL: DIVMTQTPLSLSVTPGQPASISCKSSQSLLESDGKTYLNWLLQRPGESPKLLIYLVSILDSGVPDRFSGSGSGTDFTLKISRVEAEDVGVYYCLQATHFPQTFGGGTKVEIKR
notes: KPI-2 specific
B11: Fab 0313 (Fab fragment of mAb 2000) (Fab, V domains shown)
VH: EVQLVESGGGLVKPGGSLRLSCAASGFTFSNYAMSWVRQAPGKGLEWVSTISRSGSYSYYADSVKGRFTISRDNAKNSLYLQMNSLRAEDTAVYYCARLGGYDEGDAMDSWGQGTTVTVSS
VL: DIVMTQTPLSLSVTPGQPASISCKSSQSLLESDGKTYLNWYLQKPGQSPQLLIYLVSILDSGVPDRFSGSGSGTDFTLKISRVEAEDVGVYYCLQATHFPQTFGGGTKVEIKR
notes: Fab of the initial grafted HzTFPI4F36; KPI-2 specific
B12: Fab 0088 (Fab fragment of mAb 2021) (Fab, V domains shown)
VH: EVQLVESGGGLVKPGGSLRLSCAASGFTFSNYAMSWVRQTPEKRLEWVATISRSGSYSYFPDSVQGRFTISRDNAKNSLYLQMNSLRAEDTAVYYCARLGGYDEGDAMDSWGQGTTVTVSS
VL: DIVMTQTPLSLSVTPGQPASISCKSSQSLLESDGKTYLNWYLQKPGQSPQLLIYLVSILDSGVPDRFSGSGSGTDFTLKISRVEAEDVGVYYCLQATHFPQTFGGGTKVEIKR
notes: free C-terminal cysteine; KPI-2 specific

What was measured:
[1] = target: T1, human TFPI alpha (full-length TFPIα) (human, UniProt P10646 29-304); experiment: cell-based or functional assay
[2] = target: T1, human TFPI alpha (full-length TFPIα); experiment: SPR (Biacore T200), Fab captured on Human Fab Binder, TFPIα in solution, 1:1 fit
Description: Binding interaction analysis was obtained by Surface Plasmon Resonance in a Biacore T200 instrument. Human Fab Binder (Human Fab Capture Kit, GE Healthcare) was immobilized to a series S CM4 sensor chip (GE Healthcare) in flow-cells 1-4 at 10000 response units (RU) using the amine coupling protocol available within the Biacore T-200 control software (GE Healthcare) and the reagents provided with the Amine Coupling Kit (GE Healthcare).The relevant Fab fragment or Fab-Fab conjugate was captured in flow-cell 2, 3 or 4 at a fixed concentration. Different concentrations of TFPI were tested by diluting TFPI in the running buffer (10 mM Hepes, pH 7.4, 300 mM NaCl, 5 mM CaCl₂, 0.05% Surfactant P20, 1 mg/ml BSA). Each sample was assayed using 300 seconds of contact time followed by 600 seconds of dissociation time at 50 μl/min flow rate. A buffer blank was also assayed. The sensor surface was regenerated with 10 mM Glycine pH 2.1 with two cycles each of 30 seconds at 50 μl/min flow rate.
Biacore T200 Evaluation software was used to analyse the data. Determination of binding constants (kₒₙ, koff, KD) was obtained assuming a 1:1 interaction of TFPI and the Fab variant or Fab-Fab conjugate of interest.

[3] = target: T1, human TFPI alpha (full-length TFPIα); experiment: cell-based or functional assay; remark: listed apart in the source
[4] = target: endogenous TFPI of normal human plasma (human, UniProt P10646 29-304, limits assumed); experiment: cell-based or functional assay

| Binder | lag time (min), 200 nM mAb (2 x 100 nM), FVIII-neutralised plasma + 20 nM TFPIα [1] [min] | thrombin peak (nM), 200 nM mAb (2 x 100 nM), FVIII-neutralised plasma + 20 nM TFPIα [1] [nM] | ttPeak (min), 200 nM mAb (2 x 100 nM), FVIII-neutralised plasma + 20 nM TFPIα [1] [min] | Kd [2] [nM] | koff [2] [s⁻¹] | kon [2] [M⁻¹ s⁻¹] | thrombin peak (nM) at 6.25 nM, FVIII-neutralised plasma + 2 nM TFPIα [3] [nM] | thrombin peak (nM) at 12.5 nM, FVIII-neutralised plasma + 2 nM TFPIα [3] [nM] | thrombin peak (nM) at 25.0 nM, FVIII-neutralised plasma + 2 nM TFPIα [3] [nM] | thrombin peak (nM) at 50.0 nM, FVIII-neutralised plasma + 2 nM TFPIα [3] [nM] | thrombin peak (nM) at 100 nM, FVIII-neutralised plasma + 2 nM TFPIα [3] [nM] | thrombin peak (nM) at 6.25 nM, FVIII-neutralised plasma, endogenous TFPI [4] [nM] | thrombin peak (nM) at 12.5 nM, FVIII-neutralised plasma, endogenous TFPI [4] [nM] | thrombin peak (nM) at 25.0 nM, FVIII-neutralised plasma, endogenous TFPI [4] [nM] | thrombin peak (nM) at 50.0 nM, FVIII-neutralised plasma, endogenous TFPI [4] [nM] | thrombin peak (nM) at 100 nM, FVIII-neutralised plasma, endogenous TFPI [4] [nM] |
| --- | --- | --- | --- | --- | --- | --- | --- | --- | --- | --- | --- | --- | --- | --- | --- | --- |
| B1 | 5.8 | 20.9 | 14.6 |  |  |  |  |  |  |  |  |  |  |  |  |  |
| B2 | 5.1 | 23.7 | 13.6 |  |  |  |  |  |  |  |  |  |  |  |  |  |
| B3 | 9 |  |  |  |  |  |  |  |  |  |  |  |  |  |  |  |
| B4 | 0 | 0 | 0 |  |  |  |  |  |  |  |  |  |  |  |  |  |
| B5 | 0 | 0 | 0 |  |  |  |  |  |  |  |  |  |  |  |  |  |
| B6 | 0 | 0 | 0 |  |  |  |  |  |  |  |  |  |  |  |  |  |
| B7 |  |  |  | 0.11 | 0.00057 | 5e+06 |  |  |  |  |  |  |  |  |  |  |
| B8 |  |  |  |  |  |  | 48.9 | 61.7 | 68.4 | 73.4 | 58.6 | 113 | 114 | 116 | 118 | 118 |
| B9 |  |  |  | 4.4 | 0.00066 | 150000 | 5.9 | 10.6 | 14.3 | 18.9 | 20.3 | 35.9 | 45 | 60.2 | 73.9 | 74.1 |
| B10 |  |  |  | 0.78 | 0.003 | 3.9e+06 | 13.3 | 19.4 | 22.4 | 25.1 | 24.6 | 74.2 | 81.3 | 84.9 | 85.4 | 84.7 |
| B11 |  |  |  | 42 | 0.0021 | 49000 |  |  |  |  |  |  |  |  |  |  |
| B12 |  |  |  | 0.06 | 0.0001 | 1.7e+06 | 38.4 | 64.2 | 69.8 | 67.7 | 48.1 | 96.8 | 98.1 | 102 | 101 | 87.7 |
